Laboratory results from article PMC9141661.

What was measured:
[1] = target: Angiotensin-converting enzyme 2 (ACE2) ectodomain, Fc-tagged (human) (UniProt Q9BYF1); assay: BLI
[2] = target: Angiotensin-converting enzyme 2 (ACE2) ectodomain, Fc-tagged (human) (UniProt Q9BYF1); assay: latex nanoparticle-enhanced turbidimetry

Sequence of Angiotensin-converting enzyme 2 (ACE2) ectodomain, Fc-tagged (human) (Q9BYF1 18-740): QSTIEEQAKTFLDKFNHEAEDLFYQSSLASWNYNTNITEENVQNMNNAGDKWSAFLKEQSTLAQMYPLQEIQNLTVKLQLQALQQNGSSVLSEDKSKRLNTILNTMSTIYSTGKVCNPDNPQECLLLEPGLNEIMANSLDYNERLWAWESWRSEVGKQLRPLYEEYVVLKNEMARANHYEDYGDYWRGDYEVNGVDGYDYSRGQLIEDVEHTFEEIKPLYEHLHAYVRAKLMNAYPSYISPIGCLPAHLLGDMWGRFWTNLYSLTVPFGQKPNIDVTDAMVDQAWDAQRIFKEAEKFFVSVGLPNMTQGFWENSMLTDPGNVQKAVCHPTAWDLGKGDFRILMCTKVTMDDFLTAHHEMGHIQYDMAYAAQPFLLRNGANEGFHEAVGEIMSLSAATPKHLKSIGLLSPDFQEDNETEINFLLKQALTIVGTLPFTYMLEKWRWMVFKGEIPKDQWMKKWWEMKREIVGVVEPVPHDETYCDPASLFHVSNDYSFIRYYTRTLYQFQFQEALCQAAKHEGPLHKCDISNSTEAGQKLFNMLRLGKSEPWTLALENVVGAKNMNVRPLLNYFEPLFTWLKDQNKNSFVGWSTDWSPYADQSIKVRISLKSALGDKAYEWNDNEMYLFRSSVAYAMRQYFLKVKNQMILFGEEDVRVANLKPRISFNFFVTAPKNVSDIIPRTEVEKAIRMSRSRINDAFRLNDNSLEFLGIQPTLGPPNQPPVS

Substance: Human milk lactoferrin (natural protein)
- Kd [1]: 27.6 µM
- koff [1]: 0.461 s⁻¹
- kon [1]: 16700 M⁻¹ s⁻¹
- apparent Kobs (inhibition of RBD-ACE2 complex formation, initial rates) [2]: 6.3 µM
